The values that follow come from US20120189541A1 (AbbVie / Abbott, published 2012).

For one assay, the target named is T1, Cynomolgus IL-1β (cynomolgus, UniProt P79182 117-268, limits assumed).
T1 sequence (looked up): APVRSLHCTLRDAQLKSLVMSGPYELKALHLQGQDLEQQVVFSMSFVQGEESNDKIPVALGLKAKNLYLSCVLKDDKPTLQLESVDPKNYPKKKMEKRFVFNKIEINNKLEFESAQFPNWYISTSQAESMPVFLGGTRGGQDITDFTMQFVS
Nature of the assay: cell-based or functional assay.

Assay [1] concerns the target T2, Recombinant Human IL-1β (human, UniProt P01584 117-269).
T2 construct: Bought recombinant protein; Biotinylated in the capture ELISA; also called hIL-1β; IL-1 beta
As to the kind of experiment: SPR (BIACORE), human antigen. How it is done:
(§1) The BIACORE assay (Biacore, Inc, Piscataway, N.J.) determines the affinity of antibodies or DVD-Ig molecule with kinetic measurements of on-rate and off-rate constants. Binding of antibodies or DVD-Ig molecule to a target antigen (for example, a purified recombinant target antigen) is determined by surface plasmon resonance-based measurements with a Biacore® 1000 or 3000 instrument (Biacore® AB, Uppsala, Sweden) using running HBS-EP (10 mM HEPES [pH 7.4], 150 mM NaCl, 3 mM EDTA, and 0.005% surfactant P20) at 25° C. All chemicals are obtained from Biacore® AB (Uppsala, Sweden) or otherwise from a different source as described in the text. For example, approximately 5000 RU of goat anti-mouse IgG, (Fcγ), fragment specific polyclonal antibody (Pierce Biotechnology Inc, Rockford, Ill.) diluted in 10 mM sodium acetate (pH 4.5) is directly immobilized across a CM5 research grade biosensor chip using a standard amine coupling kit according to manufacturer's instructions and procedures at 25 μg/ml. Unreacted moieties on the biosensor surface are blocked with ethanolamine. Modified carboxymethyl dextran surface in flowcell 2 and 4 is used as a reaction surface. Unmodified carboxymethyl dextran without goat anti-mouse IgG in flow cell 1 and 3 is used as the reference surface. For kinetic analysis, rate equations derived from the 1:1 Langmuir binding model are fitted simultaneously to association and dissociation phases of all eight injections (using global fit analysis) with the use of Biaevaluation 4.0.1 software. Purified antibodies or DVD-Ig molecule are diluted in HEPES-buffered saline for capture across goat anti-mouse IgG specific reaction surfaces. Antibodies or DVD-Ig molecule to be captured as a ligand (25 μg/ml) are injected over reaction matrices at a flow rate of 5 μl/min. The association and dissociation rate constants, kₒₙ (M⁻¹s⁻¹) and koff (s⁻¹) are determined under a continuous flow rate of 25 μl/minute. Rate constants are derived by making kinetic binding measurements at different antigen concentrations ranging from 10-200 nM. The equilibrium dissociation constant (M) of the reaction between antibodies or DVD-Ig molecules and the target antigen is then calculated from the kinetic rate constants by the following formula: KD=koff/kₒₙ. Binding is recorded as a function of time and kinetic rate constants are calculated.
On the technique in general: Surface plasmon resonance follows binding to a sensor surface in real time, without labels.

In assay [2] the target is T3, Recombinant Human IL-1α (human, UniProt P01583 113-271).
T3 construct: Bought recombinant protein; Biotinylated in the capture ELISA; also called hIL-1α; IL-1 alpha
T3 sequence (looked up): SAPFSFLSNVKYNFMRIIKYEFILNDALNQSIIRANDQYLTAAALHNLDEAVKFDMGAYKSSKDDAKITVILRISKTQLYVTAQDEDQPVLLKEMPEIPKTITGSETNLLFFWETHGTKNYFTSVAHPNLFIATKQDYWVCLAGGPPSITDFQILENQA
As to the kind of experiment: SPR (BIACORE), human antigen. How it is done: as §1

The target of assay [3] is T3, Recombinant Human IL-1α. As to the kind of experiment: cell-based or functional assay.
The target of assay [4] is T2, Recombinant Human IL-1β. As to the kind of experiment: cell-based or functional assay.
The target in the next assay is T4, Cynomolgus IL-1α (cynomolgus, UniProt P79340 113-271, limits assumed).
T4 sequence (looked up): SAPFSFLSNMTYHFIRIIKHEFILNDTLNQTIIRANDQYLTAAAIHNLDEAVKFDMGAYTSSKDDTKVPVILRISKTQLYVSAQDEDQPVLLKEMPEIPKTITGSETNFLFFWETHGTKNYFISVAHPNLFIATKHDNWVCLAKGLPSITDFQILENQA
As to the kind of experiment: cell-based or functional assay.

B1: E26.35-SS-3D12.10/15 (bispecific antibody, human IgG1, kappa, L234A L235A)
heavy: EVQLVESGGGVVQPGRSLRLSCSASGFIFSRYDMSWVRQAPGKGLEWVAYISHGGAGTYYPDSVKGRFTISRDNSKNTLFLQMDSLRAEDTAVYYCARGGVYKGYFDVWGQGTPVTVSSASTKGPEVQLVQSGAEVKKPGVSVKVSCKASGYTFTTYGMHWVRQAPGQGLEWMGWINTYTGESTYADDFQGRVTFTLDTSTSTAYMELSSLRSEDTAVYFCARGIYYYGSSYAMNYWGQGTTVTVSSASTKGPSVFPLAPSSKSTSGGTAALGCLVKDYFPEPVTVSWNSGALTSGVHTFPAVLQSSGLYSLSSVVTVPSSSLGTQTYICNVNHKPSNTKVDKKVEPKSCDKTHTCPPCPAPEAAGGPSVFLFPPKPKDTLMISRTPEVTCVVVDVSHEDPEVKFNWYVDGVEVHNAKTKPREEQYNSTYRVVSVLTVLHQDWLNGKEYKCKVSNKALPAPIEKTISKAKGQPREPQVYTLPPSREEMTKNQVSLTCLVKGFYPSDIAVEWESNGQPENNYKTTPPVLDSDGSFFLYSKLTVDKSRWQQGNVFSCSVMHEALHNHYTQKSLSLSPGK
light: DIQMTQSPSSLSASVGDRVTITCRASGNIHNYLTWYQQTPGKAPKLLIYNAKTLADGVPSRFSGSGSGTDYTFTISSLQPEDIATYYCQHFWSIPYTFGQGTKLQITRTVAAPDIQMTQSPSSLSASVGDRVTITCRASQDISNMLNWYQQKPGKTPKLLIYYTSRLYPGVPSRFSGSGSGTDYTFTISSLQPEDIATYFCQQGKTLPYAFGQGTKLEIKRTVAAPSVFIFPPSDEQLKSGTASVVCLLNNFYPREAKVQWKVDNALQSGNSQESVTEQDSKDSTYSLSSTLTLSKADYEKHKVYACEVTHQGLSSPVTKSFNRGEC
notes: DVD-Ig, outer domain anti-IL-1β, inner domain anti-IL-1α, short linkers
The term Kd denotes the equilibrium constant for the complex coming apart. A word on the koff: it is a measure of how fast the partners let go of each other. As a reminder, the kon is a measure of how fast the partners come together. Consider B1, for which the “Cyno IL-1β Neutralization Assay EC50 (IL-1 induced hIL-8, MRC-5 cells)” value in the assay with Cynomolgus IL-1β amounted to 0.0121 nM. Also, in the assay with Recombinant Human IL-1β [1], the Kd was found to be 0.00611 nM, the koff turned out to be 7.85e-06 s⁻¹ and the kon came to 1.28e+06 M⁻¹ s⁻¹. Also, in the assay with Recombinant Human IL-1α [2], the dissociation constant (Kd) is 0.403 nM, the koff was determined as 2.34e-05 s⁻¹ and the kon amounted to 58100 M⁻¹ s⁻¹. In addition, in the assay with Recombinant Human IL-1α [3], the “Human IL-1α Neutralization Assay EC50 (IL-1 induced hIL-8, MRC-5 cells)” value is 0.0479 nM. Besides, the “Human IL-1β Neutralization Assay EC50 (IL-1 induced hIL-8, MRC-5 cells)” value with Recombinant Human IL-1β [4] is 0.002 nM. Further, in the assay with Cynomolgus IL-1α, the “Cyno IL-1α Neutralization Assay EC50 (IL-1 induced hIL-8, MRC-5 cells)” value was 0.081 nM.
